Data taken from the DeepSol protein solubility set.

Test: soluble on expression in E. coli; label from the status in PepcDB or PDB records

Sequence: MKLINTTNSHSQLVKSQLESTDATLVEVYSAGNTDVIFTQAPLHYEILISNKHRAIREPEIETIQEFFLKRKIDKASVDEANIKTLYSEKLIGISIPIK
- soluble on expression in E. coli: not soluble

Sequence: GMTKLPATSDIYISFFMFTTNLQPDNLDYRRIVVAHIKKLQRFGYSGFEFPIAPGLPENYAQDLENYTNLRHYLDSEGLENVKISTNVGATRTFDPSSNYPEQRQEALEYLKSRVDITAALGGEIMMGPIVIPYGVFPTTDFNEPIWSDELQEHLKVRYANAQPILDKLGEYAEIKKVKLAIEPITHWETPGPNKLSQLIEFLKGVKSKQVGVVIDSAHEILDGEGPEIFKTQVEYLAQQGRLHYVQVSPPDRGALHTSWLPWKSFLTPIVKVYDGPIAVEIFNAIPAFTNSLRLTRRKFWIPDEDPPNQYPNAYDIADEAIKVTRKELKKIGSK
- soluble on expression in E. coli: soluble

Sequence: MGSDKIHHHHHHAEITLLKQDPQAGDPLSRLNFTVGGSIRPQFNMMTGDGDKGSYKRNGFDGGTRFRFAADYYLFDDISWISYYELGVNIPALFDWDNHYAEGANNTTRRMLYTGLKSDTWGTLTYGQQNSIYYDVVGVKTDIWDYDMIGQAPGNGINGDYDGSYRSRNMLKYKKTVGDVDLYGSYLFEDSEYLPGNGLRYKRKGGGSVGADYHIMKDLTWGTAWNYTRAEMRDPSSADSKTYDQNIVGTALSWTPDNWTFSFGGGWYQNFLTTKKTDVHNYFAGDAWGIEYFAGYKFPINQYAVKSIQPYFMGDRLEYVNGRNYQRIDNGLGISFQLDYGFRVDYEHVFTSSTDNLGDMNLVRLRYDF
- soluble on expression in E. coli: not soluble

Sequence: MDLLGKLFSRALKLSTLPTKKKRDAFSQQRKVLKKLLKKSANTQFGLRFNFYEILVQFSSGNKKVFYDFYKRRVPVYTYNTLYNEWWYRLKEGEADVTWPGKVQYFALSSGTSDASTKYIPITEQFLKANKKIGIRQLLSLAHYKLPKDLLGKGILMLGGSTHLHKTETYYEGDLSGIQASKIPFWFQYFYKPGSRIARNRDWESKLNDIVESAPDWDIGFIVGVPAWLQILLERIIARYQLKTIHDIWPNLTVFVHGGVAFDPYRKGFEKLLAKPIIYIETYLASEGFIAYQAGPGRKGMKLILDNGIFFEFVPFNEQNINASGDIVVNPKTLMIHEVEEGVDYVLLVSTCAGTWRYMIGDVIRFVDKAQAEIIITGRTKHFISLCGEHLSVDNMNQAIKLVAEELNIIIKEFTVSGIAHDTLFAHQWYIGTDHVIDPVVVSDLLDEKLKLLNDDYRVERTSALKEIFVTILPSQSFYDWMRYRGKEGGQNKFPRVLNKKLHEDWKAFLNQ
- soluble on expression in E. coli: not soluble

Sequence: MSITQYLTEEHRKCDQIYAEVEKAVNEGNWEKAKELFKEFKEKTLLHFKKEEEVLFPEFEQRTGIVMGPTQVMRMEHDQARELLERMEKALEEKNKDEFLSLGESLMILIQQHNMKEEQILYPMSDQNLNAEKMVSKMAELGEV
- soluble on expression in E. coli: not soluble

Sequence: MGSDKIHHHHHHMTPLAPHEASQDESAIAERIASAMPRMTPIHRRMGEFVLANPFRAATMRIDELAQAVNASIATANRFAKALGFDGYPAMRAALVRGFEATLGPVERLRSAQEQEQEQGVRGAAWIDAVFDQAIENIENTRARLDATDVEAAVEAIVGARRVLILGAGSSAFLTGLMEHGLSVCHDNVQSLALLGGPTHAARRLYTADSRDLVIALAFPRYVKDTIELARRAAARGARVLGISDGPGSPLAPVASLNLYVKAQRRFAATSEAAVLTMIEALIDAVALRTHRSAKSAAEMTEFLLPWLMQPPAALPAANPSSSGPKKS
- soluble on expression in E. coli: not soluble

Sequence: MSLRKLLKKTLFSNIIILCLYLGILKCVNSHISNEIQKQNQTFDKENLESKNTQNLQKSKNPTSQLSKTILKEEFNFLPNDVEINWKGRVLVIGDIHGDLKSLITSLFLSGVINSNLDWIAKNTLLIQLGDVVDRGSHALQIYKLFNKLKSQAPSLGSKFVGLLGNHEVMNLCGQLHYVTDEDFQTYGGRDNRTFEWSKEGFVGKYLRTMKLAIRVNDSLYVHAGLLPKYAKLGLDKLDKLSNDLLEGDFCDFYSSLFFVEDGPLWTRDISLGEEEKACKLVDETLQILGLSRMVVGHTIQHDNRINIKCDNKLILADTGFSEAIYGKPCMLEILYHNDNPDPSNYKSFHPYSINELQVKSNPSKPNIKYIQVTSLFLDKTSTRDEGHHHHHH
- soluble on expression in E. coli: soluble

Sequence: MFGNLQGKFIIATPEMDDEYFDRTVIYICEHNDNGTIGVIINTPTDLSVLELLTRMDFQMAKPRIYTQDQMVLNGGPVNQDRGFIVHSKTDHEFTHSYKVTDDITLTTSGDVLDSFGTQTAPEKFIVCLGCSTWKPHQLEQEIAQNYWLLSEANNQTLFETSYLDRWVEANEMLGISGILAPAGRALEHHHHHH
- soluble on expression in E. coli: soluble

Sequence: MFSRDRVAYTDLTVNSACDDLFPGVEDVDAQATLQLRAALDAFEEGVFEYHNRASQAGEADAGKHSARGGGQRRTRREKIYASRIPEDRQFFRPVDQQSAEWAAFKPHLWLRGRRIHSADAAAHAGQHHHLHHHTPAGAPQAQQPALAASPVHAGAGLPAGTAGAGADAGAGAGTGAGLELRGTRAVLAPPPPEAEDAADPDRECVLVDHGDFAESLAVQWDAWEAAATRGGPQALRRRRGRPRDEKAVAVGLPPVEPRSAILYDVAEELLPDVWQRLAPLLAPLLARVAEERKKRPASSAAAAFRGAGAGGGGGGGLGGGSFGGGDFEILTFS
- soluble on expression in E. coli: not soluble

Sequence: MEVEYDEGFDSSSLKNNPASLQRDYPTFMESNCSQMSVRQEFLPIFPQRLDLCQISPKKSEKKSKKKKIPSPIKKTNDTKLSILSEKSEIRSEKHKNKCKSADLDAMEKNFKELLENFSKNAALSNSLRDEASSIISSSASSQKSLFKEINLAKKLSASYSKKPEKTGEKSKNCTFSDSTFRLSSQNDSDSDDTRPPSSQASLAFEVEQARNMMMSSAKIPKPLSSSTPRKERRTTGTNSDSNKILANLKIFKPKCGNFDLFTRKVPENIRLSESQLVELYSNREPRNSKSDITIRQFFDEEDDADKTIVEQVFKDYHRSLEKETPIMRNSATDTSGSLHIERNRDGRSASMSNLISNSGNRTNLTVFDGFAPGALRHSISTVQMSPTKKKFDEFRIEHQEPGILPRFVIKTSLRPIFSPPLDIDEICGKGLRKDAESNLRHFGGKTISAQIHGSKPVQRRPTVPKASKTGSDRPTTASTAKIVEKPEIPVEIPQKLEISRKIAEKTLKLDDFPVKSSNFSNISNFQPRRPPYCSATSSDGSAHSLATVTQQLMGTVKLLHPDWLDMLRRLLNNALPRDDVTLLFKYQVLAEKDHLERKFRGNLSVEAEAADAHLEHFGRISTLNRVLDRLADLTNDGGHVSRIQQIKIIHNALFKD
- soluble on expression in E. coli: not soluble

Sequence: MGSDKIHHHHHHMDTQRGSLRGKAHKARLKMTPNGRRQLLLERGAAFSKNRTPGLKHVDRHTIVDSDGLSIHTYMVGHAENATATVVFIHGFTLAAEVYYMQVDYLQTFYPNIKSVLIDARGHGATGQIRPELCTIEGTANDVLAAIHEHAPTGPLILVGHSLGGLTALNLVKRADHSLRKRIVGMVLVATSIESLSTQGLPQVLASPLADNIKNAVEAAPNDAQKFRQYATTFLAPTLATAVFQRDTNDEVIDFHAAMIHETPLDTFVGFFDDLQEHDELDAAPALEGLKGYVLAGELDDVTPISQADRICEVWPGARLQIAEGAGHMLPLEAPGILNNAIGNILDGLG
- soluble on expression in E. coli: not soluble

Sequence: MIYLKSFERNIRLINMKVVYDDVRVLKDIIQALARLVDEAVLKFKQDSVELVALDRAHISLISVNLPREMFKEYDVNDEFKFGFNTQYLMKILKVAKRKEAIEIASESPDSVIINIIGSTNREFNVRNLEVSEQEIPEINLQFDISATISSDGFKSAISEVSTVTDNVVVEGHEDRILIKAEGESEVEVEFSKDTGGLQDLEFSKESKNSYSAEYLDDVLSLTKLSDYVKISFGNQKPLQLFFNMEGGGKVTYLLAPKV
- soluble on expression in E. coli: soluble

Sequence: MNYEIVCGIETHIELATKTKIFCGCTTEFGGEPNTHCCPVCTGQPGSLPILNQKVVEYAIKAGLALNCKINTKSHMDRKNYVYPDLPKAYQISQYDEPLCEKGYIELDSGKRIGITRIHIEEDAGKLVHENGYTYIDYNRSGVPLIEIVSEPDISSAEEAREYAEKLQLIMRYIGISDCKMQEGSMRCDVNLSLRKPGDSRFGVRTEIKNINSLSFIQKAVMAEAERQADILDAGGTVVQQTMRYDEATNSVSPMRDKENSDDYRYFPDPDILRFSINDEKVEEIRASLPELPFDKLKRYVNVLGLPEATARQIFRYRKVAEFFEGALAEGASVKNAANLIVGTIFSNMDTEEEKELFDIRISSAQFAALVKLADEKKINIGVAQSTLQKMLESGKPVEEFIKPEDLAGISDEELESLCKEAIDANPKAVADVRSGKDKAINVMFGYIMKKTGGKADIRKVEVLLRKLIGQ
- soluble on expression in E. coli: soluble

Sequence: MKHARRLRQLSQENLAHISGLSQSAVASYENGLRQSSRSIRKLAIALQVNLDWLETGAGPMELEAYPSGPAAWRPGLMEPGGERAAAPWPFRAVAHARYQALSARDKLLLEQLVRTFIDTCHADYGRAPPWPRER
- soluble on expression in E. coli: not soluble

Sequence: MQADFNRPVLAVDTGTSYLSLALRADGETCLFHQEVGSRQSALILPEIRTLFHDAGITAADLGAIVYAKGPGAFTGLRIGIGVAQGLATPFDTPLIGVPSLDAAASLPPPQSCILAAADARMGEVFYAWFDTLNRRRLSDYQVGRAADIRLPEGCAFSDGIGNAFALENRPPFSGKPDMPTAADFLNLAAEGGFPAVAAAHAELLYVRNKIALTAKEQAERRARLLEHHHHHH
- soluble on expression in E. coli: not soluble

Sequence: MINNSNDIGFIQDIAGLDKLRQKAVNGDENAGQSALTAAARQFESIFTSMMLKSMRDANSDFKSDLMSSQNEDLYRQMLDEQMASEFSSSGSLGLADMIVAQLSTGQTASEQKGEDGFQEAMRRVEHARKTASERSNEDLVAAVYPLRKTQAVQSTQFDSRHSFVTKLKPYADKAARMLGVDSSLLIAQAALETGWGQKMVKNARGNSNNLFNIKADRSWQGDKVATQTLEYHNNVPVVEKAAFRSYASFDESFNDYVRFLENNPRYTNALDHGGNSERFIHGIHRAGYATDPQYADKVLRVKAQIDQMNLL
- soluble on expression in E. coli: not soluble

Sequence: MKYSEIFKKRLGCKNTDEVFNYLLSHMKETIKGWDFFVAWEKVMNKVGSVEVVLNILNYLVGKENVVEEFKMLLGRYPEIAEVLPALLALREKSIKVVEPLADNVFNYKEYVFRKKKKYNPEEIEMLAEFAEKTGLLAMFEKKNIKSVVDYAIGVEVGLDTNARKNRSGTAMEMITELFVKKICSMNNYRYLSQATSHKIKTSFGYNVSVDKSERSFDFAIDNGHKLYLVETNYYGGGGSKLKSVAGEFTTLFSFIKKETPEHGFIWITDGKGWETAKKPLRESFDKVDYVLNLDMVQKGILEDIILQGL
- soluble on expression in E. coli: soluble

Sequence: MFEARLTDVRANKLAQAWRLAYEQADGKRRRAMLGGLAQVGAGMQGDGAQGTRLFKRFNALPDGLRFLVALRADMLRWRKQVAGLQALDKELEALLSAWFDVGLLELRPLTWDSPASLLEKLILYEAVHEIRSWDDLRHRVAGDRRCYAYFHPQMPDVPLIFVEVAFSAQMADNVQALLDTSAPPQDLDKARWAIFYSISNTQPGLRGISFGNFLLKRVIDRLLQELPKLKFFATLSPIPGFADWLSRLDAQEVEQAVRDKARTRSGAPDGARWVARLARAATGKPSEVVQRAGLRLAARYLQAMRAGQPLDPVARFHLGNGARIERLNWAADTSAKGLAQSCGMMVNYLYELGDLDGNLARLNEGKPQVSRGIARLGAAALEHHHHHH
- soluble on expression in E. coli: soluble

Sequence: MDLNFDLYMNDVVEQARNEIEHAGYQQLTSAEDVDQVLQQKGTSLVMVNSVCGCAGGIARPAAAHALHYDKLPQRLVTVFAGQDKEATQQAREYFEGYAPSSPSFALIKDGKITEMIERHQIEGHDVMDVINQLQALFDKYCEER
- soluble on expression in E. coli: not soluble
